Entries after “also recorded” stand apart in the source; their conditions may differ. Read-outs that look alike come from different tables or passages of the source. Positions of bridges follow the written chain, without caps; N, C: chain ends.
T1: Alk-6 (Homo sapiens, UniProt O00238)
T1 construct: Highly purified extra-cellular domain (ECD) of Alk-3 or Alk-6 (expressed as a fusion protein with Fc domain) served as a receptor
T1 sequence (O00238 14-126 limits assumed): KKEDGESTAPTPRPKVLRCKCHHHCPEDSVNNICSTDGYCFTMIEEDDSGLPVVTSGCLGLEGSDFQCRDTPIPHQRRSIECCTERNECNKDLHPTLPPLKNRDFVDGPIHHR


Key:
[1] = tested on: HK-2 cells; assay: TNF-α-induced inflammatory cytokine production in HK-2 cells (ELISA); format: cell-based, human; details: HK-2 cells
Method: FIG. 37 provides a bar graph showing a comparison of the effects of THR-123 (or “THR-1405”) and the specific inhibitor SB 203580 on the level of TNF-α-induced IL-6 production, an inflammatory marker, in human renal tubule epithelial cells (HK-2).
FIG. 47A-FIG. 47C Anti-inflammatory activity of THR-123. PTEC-derived HK-2 (HK-2) cells were culture on 24-well plate (30,000 cells/well). Cells are exposed to K-SFM medium alone or TNF-α (5 ng/ml). Twenty hours after TNF-α incubation, cells are washed twice by pre-warmed culture media and subsequently cells are incubated with various concentration of THR-123 or BMP7 for 60 hours. At the end of incubation, culture medias are harvested and ELISA analysis are performed. FIG. 47A: IL-6, FIG. 47B: IL-8 and FIG. 47C: ICAM-1 results are shown. Analyze are performed in triplicates and data are shown as mean±s.e.m. in the graph.
Preliminary screening for optimization was based on anti-inflammatory efficacy in an in vitro cell-based assay using a human renal tubular epithelial cell line (HK-2). The assay tested the ability of compounds to reverse the increase in production of cytokine IL-6 that resulted from stimulation of the cells with tumor necrosis factor (TNF)-α. Sequence-activity analysis was carried out using the SVA program. After six optimization cycles, THR-123 (FIG. 2A) emerged as the lead compound, which was further evaluated in other relevant anti-fibrosis assays (vide infra).
Human proximal tubular epithelial cells-derived HK-2 cells were culture on 24-well plate (30,000 cells/well). Cells are exposed to K-SFM medium alone or […] (5 ng/ml). Twenty hours after TNF-α incubation, cells are washed twice by pre-warmed culture media and subsequently cells are incubated with various concentration of THR-123 or BMP7 for 60 hours. At the end of incubation, culture medias are harvested and ELISA analysis for IL-6, IL-8 and ICAM-1 are performed.

[2] = molecular target: T1, Alk-6; assay: Radio-ligand (125I-BMP7) receptor binding assay, Alk-6 ECD
Description: FIG. 45A-FIG. 45G Pharmacokinetics of THR-123. FIG. 45A. BMP7 structure figure with the residue weights resulting from the analysis mapped on to it. FIG. 45B, FIG. 45C. Radio-ligand receptor binding assays specific for individual type I receptors, Alk-3 (FIG. 45B) and Alk-6 (FIG. 45C). Highly purified extra-cellular domain (ECD) of Alk-3 or Alk-6 (expressed as a fusion protein with Fc domain) served as a receptor. In each assay purified receptor was immobilized on each well and peptide analog or unlabeled BMP7 was added, followed by ^125I-labeled BMP7. Radiolabeled BMP7 complex was counted in an auto-gamma counter. Results were expressed as the mean±s.e.m. […] Concentration of THR-123 in systemic circulation of Wistar rats following iv injection of THR-123 (^125I-Tyr) via the tail vein determined by total radioactivity measurement. […] Six hours after intravenous administration of ^125I labeled-THR-123 in rats at a dose of 6.25 mg/kg-body weight, tissues were harvested and analyzed by automatic gamma well counter. […] Radioactivity of orally administrated ^125I labeled-THR-123 at a dose of 5 mg/kg body weight was localized in the kidney between 1 and 6 hours after administration and peaked at around 3 hours.
First, specific affinity of the extra cellular domains (ECD) of the several type I receptors of BMPs to THR-123 was analyzed. […]

[3] = tested on: pluripotent mesenchymal stem cells (C3H10T1/2); assay: Osteoblastic differentiation of pluripotent stem cells (alkaline phosphatase staining); format: cell-based, Murine; details: BMP-7 2 ug/mL
Description: Murine pluripotent mesenchymal stem cells (C3H10T1/2) treated with medium alone, BMP-7 or THR-123 were stained for alkaline phosphatase activity, an osteogenic marker. No staining of cells was observed when treated with medium alone (control, panel FIG. 41A) or with THR-123 (panel FIG. 41B). […] Cells were counterstained with hematoxylin.

Row | binding to ALK6 (competition with 125I-BMP7) [2] | Molecule | TNF-α-induced ICAM-1 production [1] | TNF-α-induced IL-8 production [1] | TNF-α-induced IL-6 production ([1]; listed as THR-123) | binding to ALK6 (competition with 125I-BMP7) ([2]; listed as THR-123) | osteoblastic differentiation (alkaline phosphatase staining) [3] | TNF-α-induced IL-6 production [1]
1 |  | (H)-CYFDDSSNVLCKKYRS-(OH) (H-CYFDDSSNVLCKKYRS-OH; disulfide 1-11; SMILES CC(C)C[C@@H]1NC(=O)[C@H](C(C)C)NC(=O)[C@H](CC(N)=O)NC(=O)[C@H](CO)NC(=O)[C@H](CO)NC(=O)[C@H](CC(=O)O)NC(=O)[C@H](CC(=O)O)NC(=O)[C@H](Cc2ccccc2)NC(=O)[C@H](Cc2ccc(O)cc2)NC(=O)[C@@H](N)CSSC[C@@H](C(=O)N[C@@H](CCCCN)C(=O)N[C@@H](CCCCN)C(=O)N[C@@H](Cc2ccc(O)cc2)C(=O)N[C@@H](CCCNC(=N)N)C(=O)N[C@@H](CO)C(=O)O)NC1=O) [SEQ ID NO: 1] | inhibits | inhibits | inhibited TNF-α induced IL-6 production in dose dependent manner; also recorded: significantly reduced | absolutely no competition; also recorded: does not bind | failed to induce osteoblastic differentiation | 
2 | binds | BMP-7: bone morphogenetic protein-7; recombinant human BMP7, positive control (protein) STGSKQRSQNRSKTPKNQEALRMANVAENSSSDQRQACKKHELYVSFRDLGWQDWIIAPEGYAAYYCEGECAFPLNSYMNATNHAIVQTLVHFINPETVPKPCCAPTQLNAISVLYFDDSSNVILKKYRNMVVRACGCH |  |  |  |  | induced osteoblastic differentiation | inhibited TNF-α induced IL-6 production in dose dependent manner

Reference: patent publication US20160058829A1, “ANTI-FIBROTIC PEPTIDES AND THEIR USE IN METHODS FOR TREATING DISEASES AND DISORDERS CHARACTERIZED BY FIBROSIS” (Thrasos Innovation, Inc., priority 2011, published 2016)
